From article PMC5300874

Assays:
[1] = target: (His)Rpo3ΔFeS2 (Methanosarcina acetivorans) (UniProt P0CG28); assay: pull-down; merodiploid M. acetivorans strains (native Rpo3 also present), tetracycline-induced; (His)Rpo3 variant held on Ni2+-agarose from lysate, anaerobic; eluates normalised to 15 ng (His)Rpo3; western blot for Rpo11, Rpo2′, Rpo1″
[2] = target: (His)Rpo3, N-terminally histidine-tagged wild-type Rpo3 expressed in Methanosarcina acetivorans (Methanosarcina acetivorans) (UniProt P0CG28)
[3] = target: (His)Rpo3mFeS2 (Methanosarcina acetivorans) (UniProt P0CG28)
[4] = target: (His)Rpo3ΔD3 (Methanosarcina acetivorans) (UniProt P0CG28)
[5] = target: (His)Rpo3ΔFeS1 (Methanosarcina acetivorans) (UniProt P0CG28)

Row | percent less in the eluate than with (His)Rpo3 (band intensity) [1] | nonspecific transcription (RNAP) activity of the imidazole eluate, gene replacement strain DJL51 (counts per min ng^-1 Rpo3) [2] | nonspecific transcription (RNAP) activity of the imidazole eluate, gene replacement strain DJL55 (counts per min ng^-1 Rpo3) [3] | nonspecific transcription (RNAP) activity of the imidazole eluate, gene replacement strain DJL54 (counts per min ng^-1 Rpo3) [4] | nonspecific transcription (RNAP) activity of the imidazole eluate, gene replacement strain DJL52 (counts per min ng^-1 Rpo3) [5] | Substance
1 | 50 % less |  |  |  |  | Rpo2′ (RpoB′), catalytic subunit of Methanosarcina acetivorans RNA polymerase (from UniProt Q8TRB6 1-604) (natural protein)
2 |  | 210 | 94 | 90 | 33 | Rpo1″ (RpoA″), catalytic subunit of Methanosarcina acetivorans RNA polymerase (natural protein)
